{"source": "the nanobody polyreactivity screen of Harvey et al. (2022)", "assay": "yeast display, Sf9 membrane polyspecificity reagent, FACS + sequencing; frameworks hold sequencing errors", "outline": "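Genes from sorted yeast were amplified by colony PCR, read by MiSeq 2 × 250 sequencing and filtered on CDR length. These cells carried a synthetic nanobody library in Saccharomyces cerevisiae BJ5465 and were sorted by FACS into low and high (top ~1%) gates on anti-HA and streptavidin fluorescence. Polyreactivity is labelled according to the gate of origin.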", "data": [{"sequence": "QVQLVESGGGLVQAGGSLRLSCAASGRTFLSYMGWYRQAPGKERELVAISRYGTSTYYADSVKGRFTISRDNAKNTVYLQMNSLKPEDTAVFYCAAEVLRDGWWGYYYWGQGTQVTVSS", "values": [{"measurement": "polyreactivity (PSR sort gate)", "result": "high polyreactivity"}]}, {"sequence": "QVQLVESGGGLVQAGGSLRVSCAASGRTFDSYAMGWYRQAPGKEREFVAAISYSGTSTYYADSVKGRFTISRDNAKNTVYLQMNSLKPEDTAVYYCNAARETRPRDYYWGQGTQVTVSS", "values": [{"measurement": "polyreactivity (PSR sort gate)", "result": "low polyreactivity"}]}, {"sequence": "QVQLVESGGGLVQAGGSLRLSCAASGRIFRGNGMGWYRQAPGKERELVAAINYSGASTYYADSVKGRFTISRDNAKNTVYLQMNSLKPEDTAVYYCARAWFYRGGEGWLESYIVSGDYWGQGTQVTVSS", "values": [{"measurement": "polyreactivity (PSR sort gate)", "result": "low polyreactivity"}]}, {"sequence": "QVQLVESGGGLVQAGGSLRLSCAASGIIFGDNAMGWYRQAPGKERELVAAIDSGGSTYYADSVKGRFTISRDNAKNTVYLQMNSLKPEDTAVYYCNAVTAFGYSYGGWDYDQYNYWGQGTQVTVSS", "values": [{"measurement": "polyreactivity (PSR sort gate)", "result": "low polyreactivity"}]}, {"sequence": "QVQLVESGVGLVQAGGSLRLSCAPSGSIFGRNAMGWYRQAPGKERELVAAISGGGSTNYSDSVKGRFTISRDNAKNTVYLQMNSLKPEDTAVYYCNTYPGSRHWWYDYWGQGTQGTVSS", "values": [{"measurement": "polyreactivity (PSR sort gate)", "result": "high polyreactivity"}]}, {"sequence": "QVQLVESCGGLVQAGCSLRLSCAASGSIVAWYTMGWYRQAPGKERELVAGITASGGSTYYADSVKGRFTISRDNAKNTVYLQMNILKPEDTAVYYCAATNPFRYRRGGYWGQGTQVTVSS", "values": [{"measurement": "polyreactivity (PSR sort gate)", "result": "high polyreactivity"}]}, {"sequence": "QVQLHESGGGLVQAGGSLRLRCAASGTISYAGPMGWYRQAPGKEREFGAGIGVGSNTNYADSVKGRYTIIRDNAKNTVFLQMNSLKPEDTAVYYCAVGGYAPLGRPYWGQGTQVTVSS", "values": [{"measurement": "polyreactivity (PSR sort gate)", "result": "low polyreactivity"}]}, {"sequence": "QVQLVESGGGLVQAGGSLRLSCAASVITLFGYTMGWYRQAPGKERELVAAIRRRGVSTYYADSVKGRFTISRDNAKNTVYLQMNSLKPEDTAVYYCAKSLKPYTDYDYWGQGTQVTVSS", "values": [{"measurement": "polyreactivity (PSR sort gate)", "result": "high polyreactivity"}]}, {"sequence": "QVQLVESGGGLVQAGGSLRLSCAASGFIFLLNAMGWYRQAPGKEREFVAAISWGGGSTYYADSVKGRFTISRDNAKNTVYLQMNSLKPEDTAVYYCAAKPGKTPLTGHRGPYDTGYGYWGQGTQVTVSS", "values": [{"measurement": "polyreactivity (PSR sort gate)", "result": "low polyreactivity"}]}, {"sequence": "QVQLVESVGGLVQAGGSLRLSCAASGFTFGRYAMGWYRQAPGKERELVAAISFSGGRTYYADSVKGRFTISRDNAKNTVYLQMNSLKPEDTAVYYCAARRRQEHVGRSSYARYDYWGQGTQVTVSS", "values": [{"measurement": "polyreactivity (PSR sort gate)", "result": "high polyreactivity"}]}, {"sequence": "QVQLVESGGGLVQAGGSLRLSCAASGGIFDTYAMGWYRQAPGKERELVAAISRRGGNTYYADSVKGRFTIARDNAKNTVYLQMNSLKPEDTAVYYCAAYYHGRMDYWGQGTQVTVSS", "values": [{"measurement": "polyreactivity (PSR sort gate)", "result": "high polyreactivity"}]}, {"sequence": "QVQLVESGGGLVQAGGSLRLSCAASGFIFQYYAMGWYRQAPGKERELVAAISWRSTSTYYADSVKGRFTISRDNAKNTVYLQMNSLKPEDTAVYYCAASPGFSIGYEYWGQGTQVTVSS", "values": [{"measurement": "polyreactivity (PSR sort gate)", "result": "low polyreactivity"}]}, {"sequence": "QVQLVESGGGLVQAGGTLRLSCAASGRIFGVYAMGWSRQAPGKERELVAAIRWSGGSTYYADSVKGRFTISRDNAKTTVYLQMNSLKPEDTAVYYCAAVGGVTRGNQYVRYGYWGQGTQVTVSS", "values": [{"measurement": "polyreactivity (PSR sort gate)", "result": "high polyreactivity"}]}, {"sequence": "QVQLVESGGGLVQAGGSLRLSCPASGIILTQNAMGWYRQAPGKERELVAAITESGARTYYADSVKGRFTISRDNAKNTVYLQMISLKPEDTAVYSCNAYRYYRGQVYPFYYWGHGTQVTVSS", "values": [{"measurement": "polyreactivity (PSR sort gate)", "result": "low polyreactivity"}]}, {"sequence": "KVQLVESGGGLVQAGGSLRLSCPASGFTFKSYTMAWSSQAPGKERELVAAISRRDGSTYYADSVKGRFPISRDNAKNTVYFQMNSLKPEDTAVYYCNAYTYGSEFDYWGQGTQVTVST", "values": [{"measurement": "polyreactivity (PSR sort gate)", "result": "high polyreactivity"}]}, {"sequence": "QVQLVESGGGLFQAGGSLSLSCAASGRTLWLYTKRWYTQAPGKEWELVARIRSGGSTYYADSVKGRFTISRDNAKNTVYLQMNSLKPEDTAVYYCAVGSRYYGRGYYYWGQGTQVTVSW", "values": [{"measurement": "polyreactivity (PSR sort gate)", "result": "high polyreactivity"}]}, {"sequence": "QVQLVESGGGLVQAGGSLRLICAASGRIFTSNAMGWYRQAPGKERELVAAISKSGGSTYYADSVKGRFTISRDNAKNTVYLQMNSLKPEDTAVYYCAAVPWRGFDYWGQGTQVTVSS", "values": [{"measurement": "polyreactivity (PSR sort gate)", "result": "high polyreactivity"}]}]}
